One may read the stoichiometry N as the number of molecules, sites or subunits per partner or assembly. A word on the Kd: it is the free concentration of one partner at which half of the binding sites on the other are occupied at equilibrium, for simple one-to-one binding.

B1: zebrafish PIP5K1A kinase catalytic domain (residues 49-431), wild type (domain or fragment)
chain: MASTGETTYKKTTSSALKGAIQLGITHSVGSLSQKPERDVLMQDFEVVESIFFPSQGSSSTPGHHHGDFKFKTYAPIAFRYFREMFGIRPDDYLYSLCNEPLIELSNPGASGSLFYVSSDDEFIIKTVQHKEAEFLQTLLPGYFMNLNQNMRTLLPKFYGLYCVQADGKNIRIVVMNNLLPRAVPMHLKFDLKGSTYKRRASPKERSKGVPTYKDLDFMQDMPEGILLENDHYTALSRTMQRDCRVLQSFKIMDYSLLVGIHILHRAGEEASTAVPDTQKKGQGQKPLYCTAIESIQGESKSKTSPQPYESMGGIPAFNSKGERLLVFIGIIDILQSYRLVKKLEHSWKALLHDGDTVSVHRPSFYADRFQKFMCSTVFRKSQLKTLE
notes: kinase catalytic domain of zebrafish PIP5K1Aα, residues 49-431; C-terminal 'Leu-Glu' that precedes the His6 tag; Dimer by SEC/MALLS and in the crystal; also called zPIP5K1A; PIP5K1A kinase domain; not shown: His6, C-terminal, kept
B2: zebrafish PIP5K1A kinase catalytic domain, E149A mutant (domain or fragment)
chain: B1 chain with E104A
notes: kinase catalytic domain of zebrafish PIP5K1Aα, residues 49-431; C-terminal 'Leu-Glu' that precedes the His6 tag; source: E. coli BL21-CodonPlus(DE3)-RIL, purified in the same way as the wild-type protein; not shown: His6, C-terminal, kept
B3: GST-tagged DIX domain of mouse DVL1 (residues 1-106) with Y17D (domain or fragment, UniProt P51141 1-106, looked up)
chain: MAETKIIYHMDEEETPDLVKLPVAPERVTLADFKNVLSNRPVHAYKFFFKSMDQDFGVVKEEIFDDNAKLPCFNGRVVSWLVLAEGAHSDAGSQGTDSHTDLPPPL
notes: DIX domain of mouse DVL1, residues 1-106, Y17D to eliminate DIX aggregation; A longer construct 1-200 (DIX-L) is named in the methods but tied to no experiment; also called DVL DIX; GST-DVL; source: E. coli, purified (glutathione-agarose beads, size-exclusion chromatography)
B4: zebrafish PIP5K1A kinase catalytic domain, S78A mutant (domain or fragment)
chain: B1 chain with S33A
notes: as for B2
B5: zebrafish PIP5K1A kinase catalytic domain, D276A mutant (domain or fragment)
chain: B1 chain with D231A
notes: as for B2
B6: zebrafish PIP5K1A kinase catalytic domain, F131A mutant (domain or fragment)
chain: B1 chain with F86A
notes: as for B2
B7: zebrafish PIP5K1A kinase catalytic domain, E167A mutant (domain or fragment)
chain: B1 chain with E122A
notes: as for B2
B8: zebrafish PIP5K1A kinase catalytic domain, Q194A mutant (domain or fragment)
chain: B1 chain with Q149A
notes: kinase catalytic domain of zebrafish PIP5K1Aα, residues 49-431; C-terminal 'Leu-Glu' that precedes the His6 tag; also called Q194 mutant; source: E. coli BL21-CodonPlus(DE3)-RIL, purified in the same way as the wild-type protein; not shown: His6, C-terminal, kept
B9: zebrafish PIP5K1A kinase catalytic domain, K426A mutant (domain or fragment)
chain: B1 chain with K381A
notes: as for B2
B10: zebrafish PIP5K1A kinase catalytic domain, Y140A mutant (domain or fragment)
chain: B1 chain with Y95A
notes: kinase catalytic domain of zebrafish PIP5K1Aα, residues 49-431; the residue is printed 'Try-140' in the results and Y140A later; C-terminal 'Leu-Glu' that precedes the His6 tag; also called Try-140 to Ala; source: E. coli BL21-CodonPlus(DE3)-RIL, purified in the same way as the wild-type protein; not shown: His6, C-terminal, kept
B11: zebrafish PIP5K1A kinase catalytic domain, Y126A mutant (domain or fragment)
chain: B1 chain with Y81A
notes: as for B2
B12: zebrafish PIP5K1A kinase catalytic domain, triple D84R/L86A/V291A (DLV) mutant (domain or fragment)
chain: B1 chain with D39R, L41A, V246A
B13: zebrafish PIP5K1A kinase catalytic domain, E82A mutant (domain or fragment)
chain: B1 chain with E37A
notes: as for B2
B14: zebrafish PIP5K1A kinase catalytic domain, L150A mutant (domain or fragment)
chain: B1 chain with L105A
notes: kinase catalytic domain of zebrafish PIP5K1Aα, residues 49-431; C-terminal 'Leu-Glu' that precedes the His6 tag; also called Leu-150 to Ala; source: E. coli BL21-CodonPlus(DE3)-RIL, purified in the same way as the wild-type protein; not shown: His6, C-terminal, kept

Data set [1] concerns the target B3. The data set can be described thus: cell-based or functional assay.
Data set [2] concerns the molecule itself. The data set can be described thus: SEC-MALS; Superdex S-200 10/30 HR; 10 mM HEPES (pH 7.3), 300 mM NaCl, 5% glycerol, 0.01% TX-100; 0.5 ml/min. (In gel filtration, larger molecules generally elute earlier.)
In data set [3] the target is B3. Kind of data set: pull-down; GST-DIX (or GST) 0.5 μg and His-tagged PIP5K1 0.5 μg in 200 μl of 10 mM HEPES (pH 7.4), 150 mM NaCl, 0.2% Triton, 0.01% SDS, 3 mM dithiothreitol, 10% glycerol; 4 °C overnight; glutathione beads; western blotting. The conditions noted are these: both partners purified.
In data set [4] the target is T1, zebrafish PIP5K1A kinase catalytic domain (residues 49-431), wild type (zebrafish, UniProt Q503I3 49-431).
T1 chain: B1 chain
Kind of data set: ITC. On the technique in general: In ITC the heat of successive injections is recorded.

Data set [5] has as its target B1. The data set can be described thus: pull-down; GST-DIX (or GST) 0.5 μg and His-tagged PIP5K1 0.5 μg in 200 μl of 10 mM HEPES (pH 7.4), 150 mM NaCl, 0.2% Triton, 0.01% SDS, 3 mM dithiothreitol, 10% glycerol; 4 °C overnight; glutathione beads; western blotting. The settings on record: both partners purified. For orientation: A western blot detects proteins with antibodies after separation by electrophoresis.

Data set [6] has as its target B12. The description is as above. The settings on record: both partners purified.
Data set [7] concerns the target T2, Dix109.
T2 chain: B3 chain
The data set can be described thus: ITC. The conditions noted are these: chain shown with the change;.

Substitutions are numbered along the chain they refer to. Numbers in names are those of the source. Bounds are passed on as bounds.

Take B1: the “fold activation of the lipid kinase activity by DIX” value in data set [1] is 3 fold. Besides, the “stoichiometry N” value in data set [2] amounted to 2. Consider B2, for which the “change in the interaction against the wild type” value (“change in the interaction” below) in data set [3] is ≤ 20%. Consider B3, for which the Kd in data set [4] amounted to 1200 nM. Further, the binding result in data set [5] and in data set [6] was “binds” each time. As to B4, the “reduction of the interaction against the wild type” value (“reduction of the interaction” below) in data set [3] is > 70%.

As for B5, in data set [3], the “reduction of the interaction” value is > 70%.

As for B6, the “change in the interaction” value in data set [3] was ≤ 20%. Take B7: in data set [3], the “change in the interaction” value was ≤ 20%. As to B8, the “change in the interaction” value in data set [3] is ≤ 20%. The same measure, in the same setting: for B9 the value was ≤ 20%; for B10, ≤ 20%. For B11, the “reduction of the interaction” value in data set [3] is > 70%. For B12, the “fold activation of the lipid kinase activity by DIX” value in data set [1] was > 30 fold. In addition, the dissociation constant Kd in data set [7] (parent: 1.2 µM) amounted to 800 nM. In addition, the other: N in data set [7] (parent: 1.01 ± 0.09) was 0.98. Besides, the other: -TΔS in data set [7] (parent: 120 ± 16 KJ mol-1) came out at 53.8 kcal/mol. The dG in data set [7] (parent: -31.0 ± 3.5 KJ mol-1) is -8.32 kcal/mol. The other: ΔH in data set [7] (parent: -151 ± 19 KJ mol-1) is -62.1 kcal/mol. As for B13, in data set [3], the “change in the interaction” value was ≤ 20%. For B14, the “change in the interaction” value in data set [3] is ≤ 20%.

For the origin of these results see publication PMC4570271, “Resolution of structure of PIP5K1A reveals molecular mechanism for its regulation by dimerization and dishevelled” (Nature Communications, 2015).
